The source of these data is US20230406921A1 (MABWELL SHANGHAI BIOSCIENCE, published 2023).

By Kd is commonly meant the equilibrium constant for the complex coming apart. A word on the kon: it is the second-order rate constant of association. The term koff denotes a measure of how fast the partners let go of each other.

Where a chain is given by its changes, count along the chain named.

Assay [1] has as its target T1, CD47 on the surface of human red blood cells (human, UniProt Q08722 19-323).
T1 construct: whole, on cells; Same protein as m3, on red blood cells; also called hRBC; RBC
In words: FACS, RBC, 200 nM. (In general: In flow cytometry, cells or beads pass a laser one at a time.)
Procedure: (§1) The difference between the binding of the mutant to CD47 on the surface of tumor cells and CD47 on the surface of red blood cells was evaluated.

Assay [2] addresses T2, recombinant antigen of the extracellular region of CD47 (Sino Biological, Cat: 12283-H08H) (human, UniProt Q08722 19-139).
T2 construct: extracellular domain; also called recombinant CD47 extracellular region; CD47 recombinant protein
In words: Fortebio BLI, recombinant CD47. For orientation: Biolayer interferometry detects binding as a change in optical thickness at a sensor tip.

The target of assay [3] is T3, CD47 on the surface of tumor cells (human, UniProt Q08722 19-323).
T3 construct: whole, on cells; Same protein as m4; also called CD47 antigen on the surface of U937 and CCRF cells; SKOV-3
The experiment in a line: FACS, tumor cells, 2 nM.
Procedure: as §1

Assay [4] has as its target T3, CD47 on the surface of tumor cells. In words: FACS, tumor cells, 1 nM.
Procedure: as §1
The target of assay [5] is T2, recombinant antigen of the …. In words: Fortebio BLI, recombinant CD47 extracellular region.
The target is the same in assay [6]. In words: Fortebio BLI, antibody on AHC sensor, CD47 extracellular region 100 nM.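 Note: antibody held on the sensor through anti-human Fc capture, CD47 antigen in solution, association and dissociation phases each lasting 300 s.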
Procedure: The affinity between the obtained mutant antibody and the CD47 recombinant protein was determined by Fortebio. The antibody was immobilized on the surface of a sensor with the anti-human Fc capture antibody (AHC Sensor), and reacted with the recombinant antigen of the extracellular region of CD47 (with a working concentration of 100 nM) in the liquid phase. The duration for binding and dissociation was both 300 seconds. The kinetic parameters were determined.

B1: hz140-Hm13/hz182-Lm7 (antibody, V domains shown)
VH: EVQLVQSGAEVKKPGASVKVSCKASGYKFTNYVMSWVRQAPGQRLEWMGYINPYNDAIKYNEKFTGRVTITRDTSASTAYMELSSLRSEDTAVYYCAREGDFYANYGRLGFAYWGQGTLVTVSS
VL: DIQMTQSPSSLSASVGDRVTITCRASQDISNYLNWYQQKPGKAPKLLLYYTSRLHSGVPSRFSGSGSGTDYTLTISSLQPEDFATYFCQQGAGFPYTFGGGTKVEIKR
As for B1, the “FACS (MFI)” value is 349 MFI in assay [1] and 17800 MFI in assay [3]. Moreover, the Kd in assay [2] was found to be 16.6 nM. The kon in assay [2] turned out to be 201000 M⁻¹ s⁻¹.

B2: h140Hm13/h140Lm8 (antibody, V domains shown)
VH: B1 VH
VL: DIQMTQSPSSLSASVGDRVTITCRASQDITNYLNWYQQKPGKAPKLLIYYTSRLHSGVPSRFSGSGSGTDYTFTISSLQPEDIATYFCQQGDTRPYTFGGGTKVEIK
notes: also called h140Lmut8; mut8
In the case of B2, the “FACS (MFI)” value in assay [4] is 26400 MFI.

B3: 140Hm10/hz140L (Table 2) (antibody, V domains shown)
VH: B1 VH with E1Q
VL: B2 VL with R94F, Y96R
notes: also called hz140-Hm/hz140L
As to B3, in assay [5], the Kd is 7.83 nM, the koff stood at 0.00202 s⁻¹ and the kon came to 258000 M⁻¹ s⁻¹.

B4: h140Hm13/h140Lm14 (antibody, V domains shown)
VH: B1 VH
VL: B2 VL with H55Q, R94Y
In the case of B4, in assay [4], the “FACS (MFI)” value amounted to 7520 MFI.

B5: 140Hm2/hz140L (Table 2) (antibody, V domains shown)
VH: B1 VH with E1Q, V33A, S35H, A57G
VL: B2 VL with R94F, Y96R
notes: also called hz140-Hm/hz140L
Regarding B5, in assay [5], the Kd is 2.67 nM, the koff was 0.00071 s⁻¹ and the kon was 266000 M⁻¹ s⁻¹.

B6: hz140-Hm7/hz182-L (antibody, V domains shown)
VH: B1 VH with E1Q, S35H, A57G, T65Q
VL: B2 VL with T30S, I48L, F73L, I83F, D92A, T93G
As for B6, in assay [6], the dissociation constant (Kd) came out at 61.8 nM, the off-rate (koff) came out at 0.00767 s⁻¹ and the on-rate (kon) was determined as 124000 M⁻¹ s⁻¹.

B7: h140Hm13/h140Lm15 (antibody, V domains shown)
VH: B1 VH
VL: B2 VL with H55Q, R94K
As to B7, the “FACS (MFI)” value in assay [4] was determined as 15700 MFI.

B8: hz140-Hm6/hz182-L (antibody, V domains shown)
VH: B1 VH with E1Q, S35H, Y54G, A57G
VL: B2 VL with T30S, I48L, F73L, I83F, D92A, T93G
Take B8: in assay [6], the Kd was 8.55 nM, the koff was determined as 0.00316 s⁻¹ and the on-rate (kon) worked out at 370000 M⁻¹ s⁻¹.

B9: h140Hm13/h140Lm11 (antibody, V domains shown)
VH: B1 VH
VL: B2 VL with H55S
As to B9, the “FACS (MFI)” value in assay [4] came to 19400 MFI.

B10: hz140-Hm2/hz182-L (antibody, V domains shown)
VH: B1 VH with E1Q, N31S, S35H, A57G
VL: B2 VL with T30S, I48L, F73L, I83F, D92A, T93G
With B10, in assay [6], the dissociation constant (Kd) stood at 1.71 nM, the koff came out at 0.000541 s⁻¹ and the on-rate constant (kon) came out at 317000 M⁻¹ s⁻¹.

B11: hz140-Hm12/hz182-L (antibody, V domains shown)
VH: B1 VH with E1Q, K28T
VL: B2 VL with T30S, I48L, F73L, I83F, D92A, T93G
Consider B11, for which, in assay [6], the dissociation constant Kd came to 14.7 nM, the off-rate constant (koff) came to 0.00328 s⁻¹ and the kon stood at 224000 M⁻¹ s⁻¹.

B12: h140Hm13/h140Lm17 (antibody, V domains shown)
VH: B1 VH
VL: B2 VL with H55Q, R94E
B12: in assay [4], the “FACS (MFI)” value came to 11200 MFI.

B13: 140Hm4/hz140L (Table 2) (antibody, V domains shown)
VH: B1 VH with E1Q, S35H, Y50W, A57G
VL: B2 VL with R94F, Y96R
notes: also called hz140-Hm/hz140L
For the molecule B13, in assay [5], the Kd amounted to 6.17 nM, the off-rate constant (koff) amounted to 0.00216 s⁻¹ and the kon is 350000 M⁻¹ s⁻¹.

B14: hz140-Hm5/hz182-L (antibody, V domains shown)
VH: B1 VH with E1Q, S35H, Y50W, A57G
VL: B2 VL with T30S, I48L, F73L, I83F, D92A, T93G
In the case of B14, in assay [6], the Kd came out at 6.82 nM, the dissociation rate constant (koff) is 0.00103 s⁻¹ and the kon amounted to 151000 M⁻¹ s⁻¹.

B15: hz140-Hm3/hz182-L (antibody, V domains shown)
VH: B1 VH with E1Q, V33A, S35H, A57G
VL: B2 VL with T30S, I48L, F73L, I83F, D92A, T93G
On to B15, for which, in assay [6], the dissociation constant (Kd) was 10.3 nM, the dissociation rate constant (koff) came out at 0.00308 s⁻¹ and the on-rate (kon) worked out at 299000 M⁻¹ s⁻¹.

B16: h140Hm13/h140Lm13 (antibody, V domains shown)
VH: B1 VH
VL: B2 VL with R94F
Regarding B16, the “FACS (MFI)” value in assay [4] is 10300 MFI.

B17: 140Hm5/hz140L (Table 2) (antibody, V domains shown)
VH: B1 VH with E1Q, S35H, Y54G, A57G
VL: B2 VL with R94F, Y96R
notes: also called hz140-Hm/hz140L
Regarding B17, in assay [5], the Kd turned out to be 20.8 nM, the dissociation rate constant (koff) turned out to be 0.00467 s⁻¹ and the association rate constant (kon) is 224000 M⁻¹ s⁻¹.

B18: 140Hm3/hz140L (Table 2) (antibody, V domains shown)
VH: B1 VH with E1Q, A57G
VL: B2 VL with R94F, Y96R
notes: also called hz140-Hm/hz140L
As for B18, in assay [5], the Kd came to 5.12 nM, the koff turned out to be 0.00103 s⁻¹ and the kon stood at 201000 M⁻¹ s⁻¹.

B19: 140Hm7/hz140L (Table 2) (antibody, V domains shown)
VH: B1 VH with E1Q, S35H, A57G, A112D
VL: B2 VL with R94F, Y96R
notes: also called hz140-Hm/hz140L
Take B19: in assay [5], the Kd came out at 61.4 nM, the off-rate constant (koff) was 0.0131 s⁻¹ and the on-rate constant (kon) was found to be 213000 M⁻¹ s⁻¹.

B20: h140Hm13/h140Lm10 (antibody, V domains shown)
VH: B1 VH
VL: B2 VL with D92A, T93G
notes: also called h140Lmut10; mut10
As to B20, in assay [4], the “FACS (MFI)” value came out at 40900 MFI.

B21: hz140-Hm8/hz182-L (antibody, V domains shown)
VH: B1 VH with E1Q, S35H, A57G, A112D
VL: B2 VL with T30S, I48L, F73L, I83F, D92A, T93G
On to B21, for which, in assay [6], the dissociation constant (Kd) is 42.5 nM, the koff was 0.00907 s⁻¹ and the kon is 213000 M⁻¹ s⁻¹.

B22: hz140-Hm1/hz182-L (antibody, V domains shown)
VH: B1 VH with E1Q, K28T, S35H, A57G
VL: B2 VL with T30S, I48L, F73L, I83F, D92A, T93G
B22: in assay [6], the Kd turned out to be 1.67 nM, the koff was determined as 0.000542 s⁻¹ and the kon was determined as 325000 M⁻¹ s⁻¹.

B23: 140Hm8/hz140L (Table 2) (antibody, V domains shown)
VH: B1 VH with E1Q, S35H
VL: B2 VL with R94F, Y96R
notes: also called hz140-Hm/hz140L
Regarding B23, in assay [5], the equilibrium dissociation constant (Kd) worked out at 3.87 nM, the off-rate (koff) was 0.00094 s⁻¹ and the kon was 243000 M⁻¹ s⁻¹.

B24: h140Hm13/h140Lm18 (antibody, V domains shown)
VH: B1 VH
VL: B2 VL with H55Q, R94N
In the case of B24, in assay [4], the “FACS (MFI)” value came out at 9920 MFI.

B25: 140Hm9/hz140L (Table 2) (antibody, V domains shown)
VH: B1 VH with E1Q, S35H, D56E, A57G
VL: B2 VL with R94F, Y96R
notes: also called hz140-Hm/hz140L
For B25, in assay [5], the Kd was found to be 3.92 nM, the koff is 0.000847 s⁻¹ and the kon stood at 216000 M⁻¹ s⁻¹.

B26: hz140-Hm11/hz182-L (antibody, V domains shown)
VH: B1 VH with E1Q
VL: B2 VL with T30S, I48L, F73L, I83F, D92A, T93G
As for B26, in assay [6], the Kd is 6.53 nM, the koff was 0.0017 s⁻¹ and the association rate constant (kon) was 260000 M⁻¹ s⁻¹.

B27: h140Hm13/h140Lm16 (antibody, V domains shown)
VH: B1 VH
VL: B2 VL with H55Q, R94S
As to B27, the “FACS (MFI)” value in assay [4] was determined as 12200 MFI.

B28: hz140-Hm9/hz182-L (antibody, V domains shown)
VH: B1 VH with E1Q, S35H
VL: B2 VL with T30S, I48L, F73L, I83F, D92A, T93G
Take B28: in assay [6], the Kd was less than 0.001 nM, the koff is less than 1e-07 s⁻¹ and the kon came to 223000 M⁻¹ s⁻¹.

B29: hz140-Hm10/hz182-L (antibody, V domains shown)
VH: B1 VH with E1Q, S35H, D56E, A57G
VL: B2 VL with T30S, I48L, F73L, I83F, D92A, T93G
Consider B29, for which, in assay [6], the equilibrium dissociation constant (Kd) was less than 0.001 nM, the koff was less than 1e-07 s⁻¹ and the on-rate constant (kon) was determined as 206000 M⁻¹ s⁻¹.

B30: h140Hm13/h140Lm12 (antibody, V domains shown)
VH: B1 VH
VL: B2 VL with H55Q
Turning to B30, the “FACS (MFI)” value in assay [4] is 26400 MFI.

B31: hz140-Hm4/hz182-L (antibody, V domains shown)
VH: B1 VH with E1Q, A57G
VL: B2 VL with T30S, I48L, F73L, I83F, D92A, T93G
As for B31, in assay [6], the Kd came out at 5.97 nM, the koff came to 0.00171 s⁻¹ and the association rate constant (kon) was 286000 M⁻¹ s⁻¹.

B32: 140Hm6/hz140L (Table 2) (antibody, V domains shown)
VH: B1 VH with E1Q, S35H, A57G, T65Q
VL: B2 VL with R94F, Y96R
notes: also called hz140-Hm/hz140L
In the case of B32, in assay [5], the dissociation constant Kd was 22.6 nM, the dissociation rate constant (koff) stood at 0.00707 s⁻¹ and the on-rate constant (kon) amounted to 313000 M⁻¹ s⁻¹.
